Reference: patent publication US20260001928A1 (CORTERIA PHARMACEUTICALS, priority 2022, published 2026)
*1 amine or outer side, *2 acyl side, *3 side chain or, on linkers, in order; H or OH if unused. Side-chain parts run from the residue outwards. [ ]: non-standard residue; d: D form. The star is where a group is joined. C16 diacid = O=C(O)CCCCCCCCCCCCCCC(=O)*; γGlu = O=C(O)[C@H](CCC(=O)[*:2])N[*:1]; Pentanoyl = CCCCC(=O)*; Aib = CC(C)(N)C(=O)O

T1: CRF1R receptor (UniProt P34998 24-415, limits assumed)
T1 sequence (looked up): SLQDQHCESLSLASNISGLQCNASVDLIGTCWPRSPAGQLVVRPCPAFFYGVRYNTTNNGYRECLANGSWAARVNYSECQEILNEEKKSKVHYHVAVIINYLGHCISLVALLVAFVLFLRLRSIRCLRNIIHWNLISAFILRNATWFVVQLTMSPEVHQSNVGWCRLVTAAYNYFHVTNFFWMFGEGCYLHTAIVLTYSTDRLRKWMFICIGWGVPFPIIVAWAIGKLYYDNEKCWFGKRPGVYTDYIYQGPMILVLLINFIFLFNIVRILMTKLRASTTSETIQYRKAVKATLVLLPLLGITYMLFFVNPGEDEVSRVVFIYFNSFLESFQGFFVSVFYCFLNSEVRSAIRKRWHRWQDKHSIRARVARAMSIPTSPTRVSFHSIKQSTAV


Columns and labels:
[1] = biological target: human corticotropin-releasing factor 2a (CRF2a receptor) (human), Q13324; test: cell-based or functional assay
Chain of human corticotropin-releasing factor 2a (CRF2a receptor) (human), Q13324 (Q13324 20-411): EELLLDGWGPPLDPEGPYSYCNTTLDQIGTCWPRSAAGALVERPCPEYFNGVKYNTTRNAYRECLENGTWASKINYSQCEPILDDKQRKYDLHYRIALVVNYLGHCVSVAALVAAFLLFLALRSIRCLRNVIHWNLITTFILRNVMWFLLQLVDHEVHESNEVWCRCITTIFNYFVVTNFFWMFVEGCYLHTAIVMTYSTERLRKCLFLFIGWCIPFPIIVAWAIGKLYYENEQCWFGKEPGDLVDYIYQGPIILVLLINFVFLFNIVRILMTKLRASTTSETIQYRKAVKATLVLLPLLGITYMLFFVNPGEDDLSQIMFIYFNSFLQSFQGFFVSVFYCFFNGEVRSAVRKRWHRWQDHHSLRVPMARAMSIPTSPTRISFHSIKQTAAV

CRF1R receptor = biological target: T1, CRF1R receptor; test: cell-based or functional assay

| Binder | EC50 [nM] (cAMP) [1] | EC50 (CRF1R receptor) | Emax (% I) (CRF1R receptor) |
| --- | --- | --- | --- |
| Ac-IVLSLD[dV]PIALK([γGlu-C16 diacid])KILLEQEKQKKQREQAETN[Aib]QILAQV-NH2 (SMILES CC[C@H](C)[C@H](NC(C)=O)C(=O)N[C@H](C(=O)N[C@@H](CC(C)C)C(=O)N[C@@H](CO)C(=O)N[C@@H](CC(C)C)C(=O)N[C@@H](CC(=O)O)C(=O)N[C@@H](C(=O)N1CCC[C@H]1C(=O)N[C@H](C(=O)N[C@@H](C)C(=O)N[C@@H](CC(C)C)C(=O)N[C@@H](CCCCNC(=O)CC[C@H](NC(=O)CCCCCCCCCCCCCCC(=O)O)C(=O)O)C(=O)N[C@@H](CCCCN)C(=O)N[C@H](C(=O)N[C@@H](CC(C)C)C(=O)N[C@@H](CC(C)C)C(=O)N[C@@H](CCC(=O)O)C(=O)N[C@@H](CCC(N)=O)C(=O)N[C@@H](CCC(=O)O)C(=O)N[C@@H](CCCCN)C(=O)N[C@@H](CCC(N)=O)C(=O)N[C@@H](CCCCN)C(=O)N[C@@H](CCCCN)C(=O)N[C@@H](CCC(N)=O)C(=O)N[C@@H](CCCNC(=N)N)C(=O)N[C@@H](CCC(=O)O)C(=O)N[C@@H](CCC(N)=O)C(=O)N[C@@H](C)C(=O)N[C@@H](CCC(=O)O)C(=O)N[C@H](C(=O)N[C@@H](CC(N)=O)C(=O)NC(C)(C)C(=O)N[C@@H](CCC(N)=O)C(=O)N[C@H](C(=O)N[C@@H](CC(C)C)C(=O)N[C@@H](C)C(=O)N[C@@H](CCC(N)=O)C(=O)N[C@H](C(N)=O)C(C)C)[C@@H](C)CC)[C@@H](C)O)[C@@H](C)CC)[C@@H](C)CC)C(C)C)C(C)C) [SEQ ID NO 163] | 0.3 nM | 190 nM | 53% |
| Ac-IVLSLD[dV]PIKLK([γGlu-C16 diacid])KILLEQEKQAKQREQAETN[Aib]QILAQV-NH2 (SMILES CC[C@H](C)[C@H](NC(C)=O)C(=O)N[C@H](C(=O)N[C@@H](CC(C)C)C(=O)N[C@@H](CO)C(=O)N[C@@H](CC(C)C)C(=O)N[C@@H](CC(=O)O)C(=O)N[C@@H](C(=O)N1CCC[C@H]1C(=O)N[C@H](C(=O)N[C@@H](CCCCN)C(=O)N[C@@H](CC(C)C)C(=O)N[C@@H](CCCCNC(=O)CC[C@H](NC(=O)CCCCCCCCCCCCCCC(=O)O)C(=O)O)C(=O)N[C@@H](CCCCN)C(=O)N[C@H](C(=O)N[C@@H](CC(C)C)C(=O)N[C@@H](CC(C)C)C(=O)N[C@@H](CCC(=O)O)C(=O)N[C@@H](CCC(N)=O)C(=O)N[C@@H](CCC(=O)O)C(=O)N[C@@H](CCCCN)C(=O)N[C@@H](CCC(N)=O)C(=O)N[C@@H](C)C(=O)N[C@@H](CCCCN)C(=O)N[C@@H](CCC(N)=O)C(=O)N[C@@H](CCCNC(=N)N)C(=O)N[C@@H](CCC(=O)O)C(=O)N[C@@H](CCC(N)=O)C(=O)N[C@@H](C)C(=O)N[C@@H](CCC(=O)O)C(=O)N[C@H](C(=O)N[C@@H](CC(N)=O)C(=O)NC(C)(C)C(=O)N[C@@H](CCC(N)=O)C(=O)N[C@H](C(=O)N[C@@H](CC(C)C)C(=O)N[C@@H](C)C(=O)N[C@@H](CCC(N)=O)C(=O)N[C@H](C(N)=O)C(C)C)[C@@H](C)CC)[C@@H](C)O)[C@@H](C)CC)[C@@H](C)CC)C(C)C)C(C)C) [SEQ ID NO 166] | 0.77 nM | – | 5% |
| Ac-IVLSLD[dV]PIKLK([γGlu-C16 diacid])KILLEQEAQKKQREQAETN[Aib]QILAQV-NH2 (SMILES CC[C@H](C)[C@H](NC(C)=O)C(=O)N[C@H](C(=O)N[C@@H](CC(C)C)C(=O)N[C@@H](CO)C(=O)N[C@@H](CC(C)C)C(=O)N[C@@H](CC(=O)O)C(=O)N[C@@H](C(=O)N1CCC[C@H]1C(=O)N[C@H](C(=O)N[C@@H](CCCCN)C(=O)N[C@@H](CC(C)C)C(=O)N[C@@H](CCCCNC(=O)CC[C@H](NC(=O)CCCCCCCCCCCCCCC(=O)O)C(=O)O)C(=O)N[C@@H](CCCCN)C(=O)N[C@H](C(=O)N[C@@H](CC(C)C)C(=O)N[C@@H](CC(C)C)C(=O)N[C@@H](CCC(=O)O)C(=O)N[C@@H](CCC(N)=O)C(=O)N[C@@H](CCC(=O)O)C(=O)N[C@@H](C)C(=O)N[C@@H](CCC(N)=O)C(=O)N[C@@H](CCCCN)C(=O)N[C@@H](CCCCN)C(=O)N[C@@H](CCC(N)=O)C(=O)N[C@@H](CCCNC(=N)N)C(=O)N[C@@H](CCC(=O)O)C(=O)N[C@@H](CCC(N)=O)C(=O)N[C@@H](C)C(=O)N[C@@H](CCC(=O)O)C(=O)N[C@H](C(=O)N[C@@H](CC(N)=O)C(=O)NC(C)(C)C(=O)N[C@@H](CCC(N)=O)C(=O)N[C@H](C(=O)N[C@@H](CC(C)C)C(=O)N[C@@H](C)C(=O)N[C@@H](CCC(N)=O)C(=O)N[C@H](C(N)=O)C(C)C)[C@@H](C)CC)[C@@H](C)O)[C@@H](C)CC)[C@@H](C)CC)C(C)C)C(C)C) [SEQ ID NO 165] | 0.64 nM | – | 14% |
| Ac-IVLSLD[dV]PIKLK([γGlu-C16 diacid])KILLEQEKQKKQAEQAETN[Aib]QILAQV-NH2 (SMILES CC[C@H](C)[C@H](NC(C)=O)C(=O)N[C@H](C(=O)N[C@@H](CC(C)C)C(=O)N[C@@H](CO)C(=O)N[C@@H](CC(C)C)C(=O)N[C@@H](CC(=O)O)C(=O)N[C@@H](C(=O)N1CCC[C@H]1C(=O)N[C@H](C(=O)N[C@@H](CCCCN)C(=O)N[C@@H](CC(C)C)C(=O)N[C@@H](CCCCNC(=O)CC[C@H](NC(=O)CCCCCCCCCCCCCCC(=O)O)C(=O)O)C(=O)N[C@@H](CCCCN)C(=O)N[C@H](C(=O)N[C@@H](CC(C)C)C(=O)N[C@@H](CC(C)C)C(=O)N[C@@H](CCC(=O)O)C(=O)N[C@@H](CCC(N)=O)C(=O)N[C@@H](CCC(=O)O)C(=O)N[C@@H](CCCCN)C(=O)N[C@@H](CCC(N)=O)C(=O)N[C@@H](CCCCN)C(=O)N[C@@H](CCCCN)C(=O)N[C@@H](CCC(N)=O)C(=O)N[C@@H](C)C(=O)N[C@@H](CCC(=O)O)C(=O)N[C@@H](CCC(N)=O)C(=O)N[C@@H](C)C(=O)N[C@@H](CCC(=O)O)C(=O)N[C@H](C(=O)N[C@@H](CC(N)=O)C(=O)NC(C)(C)C(=O)N[C@@H](CCC(N)=O)C(=O)N[C@H](C(=O)N[C@@H](CC(C)C)C(=O)N[C@@H](C)C(=O)N[C@@H](CCC(N)=O)C(=O)N[C@H](C(N)=O)C(C)C)[C@@H](C)CC)[C@@H](C)O)[C@@H](C)CC)[C@@H](C)CC)C(C)C)C(C)C) [SEQ ID NO 167] | 1.15 nM | – | 7% |
| Pentanoyl-VLSLD[dV]PIKLK([γGlu-C16 diacid])QILLKQERQKKQREQAEKNKQILEQV-NH2 (SMILES CCCCC(=O)N[C@H](C(=O)N[C@@H](CC(C)C)C(=O)N[C@@H](CO)C(=O)N[C@@H](CC(C)C)C(=O)N[C@@H](CC(=O)O)C(=O)N[C@@H](C(=O)N1CCC[C@H]1C(=O)N[C@H](C(=O)N[C@@H](CCCCN)C(=O)N[C@@H](CC(C)C)C(=O)N[C@@H](CCCCNC(=O)CC[C@H](NC(=O)CCCCCCCCCCCCCCC(=O)O)C(=O)O)C(=O)N[C@@H](CCC(N)=O)C(=O)N[C@H](C(=O)N[C@@H](CC(C)C)C(=O)N[C@@H](CC(C)C)C(=O)N[C@@H](CCCCN)C(=O)N[C@@H](CCC(N)=O)C(=O)N[C@@H](CCC(=O)O)C(=O)N[C@@H](CCCNC(=N)N)C(=O)N[C@@H](CCC(N)=O)C(=O)N[C@@H](CCCCN)C(=O)N[C@@H](CCCCN)C(=O)N[C@@H](CCC(N)=O)C(=O)N[C@@H](CCCNC(=N)N)C(=O)N[C@@H](CCC(=O)O)C(=O)N[C@@H](CCC(N)=O)C(=O)N[C@@H](C)C(=O)N[C@@H](CCC(=O)O)C(=O)N[C@@H](CCCCN)C(=O)N[C@@H](CC(N)=O)C(=O)N[C@@H](CCCCN)C(=O)N[C@@H](CCC(N)=O)C(=O)N[C@H](C(=O)N[C@@H](CC(C)C)C(=O)N[C@@H](CCC(=O)O)C(=O)N[C@@H](CCC(N)=O)C(=O)N[C@H](C(N)=O)C(C)C)[C@@H](C)CC)[C@@H](C)CC)[C@@H](C)CC)C(C)C)C(C)C) [SEQ ID NO 8] | 0.14 nM | 186 nM | 50% |
| Ac-IVLSLD[dV]PIKLK([γGlu-C16 diacid])AILLEQEKQKKQREQAETN[Aib]QILAQV-NH2 (SMILES CC[C@H](C)[C@H](NC(C)=O)C(=O)N[C@H](C(=O)N[C@@H](CC(C)C)C(=O)N[C@@H](CO)C(=O)N[C@@H](CC(C)C)C(=O)N[C@@H](CC(=O)O)C(=O)N[C@@H](C(=O)N1CCC[C@H]1C(=O)N[C@H](C(=O)N[C@@H](CCCCN)C(=O)N[C@@H](CC(C)C)C(=O)N[C@@H](CCCCNC(=O)CC[C@H](NC(=O)CCCCCCCCCCCCCCC(=O)O)C(=O)O)C(=O)N[C@@H](C)C(=O)N[C@H](C(=O)N[C@@H](CC(C)C)C(=O)N[C@@H](CC(C)C)C(=O)N[C@@H](CCC(=O)O)C(=O)N[C@@H](CCC(N)=O)C(=O)N[C@@H](CCC(=O)O)C(=O)N[C@@H](CCCCN)C(=O)N[C@@H](CCC(N)=O)C(=O)N[C@@H](CCCCN)C(=O)N[C@@H](CCCCN)C(=O)N[C@@H](CCC(N)=O)C(=O)N[C@@H](CCCNC(=N)N)C(=O)N[C@@H](CCC(=O)O)C(=O)N[C@@H](CCC(N)=O)C(=O)N[C@@H](C)C(=O)N[C@@H](CCC(=O)O)C(=O)N[C@H](C(=O)N[C@@H](CC(N)=O)C(=O)NC(C)(C)C(=O)N[C@@H](CCC(N)=O)C(=O)N[C@H](C(=O)N[C@@H](CC(C)C)C(=O)N[C@@H](C)C(=O)N[C@@H](CCC(N)=O)C(=O)N[C@H](C(N)=O)C(C)C)[C@@H](C)CC)[C@@H](C)O)[C@@H](C)CC)[C@@H](C)CC)C(C)C)C(C)C) [SEQ ID NO 164] | 2.43 nM | – | 14% |
